{"source": "patent US20040132130", "proteins": {"B1": {"name": "His-Xpress-sGnT-I (protein)", "chain": "SVSALDGDPASLTREVIRLAQDAEVELERQRGLLQQIGDALSSQRGRVPTAAPPAQPRVPVTPAPAVIPILVIACDRSTVRRCLDKLLHYRPSAELFPIIVSQDCGHEETAQAIASYGSAVTHIRQPDLSSIAVPPDHRKFQGYYKIARHYRWALGQVFRQFRFPAAVVVEDDLEVAPDFFEYFRATYPLLKADPSLWCVSAWNDNGKEQMVDASRPELLYRTDFFPGLGWLLLAELWAELEPKWPKAFWDDWMRRPEQRQGRACIRPEISRTMTFGRKGVSHGQFFDQHLKFIKLNQQFVHFTQLDLSYLQREAYDRDFLARVYGAPQLQVEKVRTNDRKELGEVRVQYTGRDSFKAFAKALGVMDDLKSGVPRAGYRGIVTFQFRGRRVHLAPPLTWEGYDPSWN"}, "B2": {"name": "His-Xpress-sOMGnT(S) (protein)", "chain": "SSAEEAECHWADTELNRRRRRFCSKVEGYGSVCSCKDPTPIEFSPDPLPDNKVLNVPVAVIAGNRPNYLYRMLRSLLSAQGVSPQMITVFIDGYYEEPMDVVALFGLRGIQHTPISIKNARVSQHYKASLTATFNLFPEAKFAVVLEEDLDIAVDFFSFLSQSIHLLEEDDSLYCISAWNDQGYEHTAEDPALLYRVETMPGLGWVLRRSLYKEELEPKWPTPEKLWDWDMWMRMPEQRRGRECIIPDVSRSYHFGIVGLNMNGYFHEAYFKKHKFNTVPGVQLRNVDSLKKEAYEVEVHRLLSEAEVLDHSKNPCEDSFLPDTEGHTYVAFIRMEKDDDFTTWTQLAKCLHIWDLDVRGNHRGLWRLFRKKNHFLVVGVPASPYSVKKPPSVTPIFLEPPPKEEGAPGAPEQT"}}, "target": "T1, Ac-Ala-Ala-Pro-Thr(Man)-Pro-Val-Ala-Ala-Pro-NH2", "T1 chain": "AAPTPVAAP"}
{"protein": "B1", "values": [{"measurement": "OMGnT activity (pmol/hr/mg protein) (pmol/hr/mg protein)", "result": 0.4}]}
{"protein": "B2", "values": [{"measurement": "Km value", "result": 1360, "unit": "µM"}, {"measurement": "OMGnT activity (pmol/hr/mg protein) (pmol/hr/mg protein)", "result": 20}, {"measurement": "OMGnT relative activity (%)", "result": 100, "unit": "%"}]}
